From patent publication US20260167699A1 (Chugai, published 2026)

B1: GpH7-A5/GpH7-B3 variant P238_15Y/GpL16-k0 (antibody, human IgG1, kappa)
heavy 1: not shown
heavy 2: not shown
light: DIVMTQSPLSLPVTPGEPASISCQASESLVHSNRNTYLHWYLQKPGQSPQLLIYKVSNRFSGVPDRFSGSGSGTDFTLKISRVEAEDVGVYYCSQNTHVPPTFGQGTKVEIERTVAAPSVFIFPPSDEQLKSGTASVVCLLNNFYPREAKVQWKVDNALQSGNSQESVTEQDSKDSTYSLSSTLTLSKADYEKHKVYACEVTHQGLSSPVTKSFNRGEC
notes: copies: 1 + 1 + 2
B2: GpH7-A5/GpH7-B3 variant P238_19Q/GpL16-k0 (antibody, human IgG1, kappa)
heavy 1: not shown
heavy 2: not shown
light: DIVMTQSPLSLPVTPGEPASISCQASESLVHSNRNTYLHWYLQKPGQSPQLLIYKVSNRFSGVPDRFSGSGSGTDFTLKISRVEAEDVGVYYCSQNTHVPPTFGQGTKVEIERTVAAPSVFIFPPSDEQLKSGTASVVCLLNNFYPREAKVQWKVDNALQSGNSQESVTEQDSKDSTYSLSSTLTLSKADYEKHKVYACEVTHQGLSSPVTKSFNRGEC
notes: copies: 1 + 1 + 2
B3: GpH7-A5/GpH7-B3 variant P271_01G/GpL16-k0 (antibody, human IgG1, kappa)
heavy 1: not shown
heavy 2: not shown
light: DIVMTQSPLSLPVTPGEPASISCQASESLVHSNRNTYLHWYLQKPGQSPQLLIYKVSNRFSGVPDRFSGSGSGTDFTLKISRVEAEDVGVYYCSQNTHVPPTFGQGTKVEIERTVAAPSVFIFPPSDEQLKSGTASVVCLLNNFYPREAKVQWKVDNALQSGNSQESVTEQDSKDSTYSLSSTLTLSKADYEKHKVYACEVTHQGLSSPVTKSFNRGEC
notes: copies: 1 + 1 + 2
B4: GpH7-A5/GpH7-B3 variant P271_02A/GpL16-k0 (antibody, human IgG1, kappa)
heavy 1: not shown
heavy 2: not shown
light: DIVMTQSPLSLPVTPGEPASISCQASESLVHSNRNTYLHWYLQKPGQSPQLLIYKVSNRFSGVPDRFSGSGSGTDFTLKISRVEAEDVGVYYCSQNTHVPPTFGQGTKVEIERTVAAPSVFIFPPSDEQLKSGTASVVCLLNNFYPREAKVQWKVDNALQSGNSQESVTEQDSKDSTYSLSSTLTLSKADYEKHKVYACEVTHQGLSSPVTKSFNRGEC
notes: copies: 1 + 1 + 2
B5: GpH7-A5/GpH7-B3 variant P271_03V/GpL16-k0 (antibody, human IgG1, kappa)
heavy 1: not shown
heavy 2: not shown
light: DIVMTQSPLSLPVTPGEPASISCQASESLVHSNRNTYLHWYLQKPGQSPQLLIYKVSNRFSGVPDRFSGSGSGTDFTLKISRVEAEDVGVYYCSQNTHVPPTFGQGTKVEIERTVAAPSVFIFPPSDEQLKSGTASVVCLLNNFYPREAKVQWKVDNALQSGNSQESVTEQDSKDSTYSLSSTLTLSKADYEKHKVYACEVTHQGLSSPVTKSFNRGEC
notes: copies: 1 + 1 + 2
B6: GpH7-A5/GpH7-B3 variant P271_04F/GpL16-k0 (antibody, human IgG1, kappa)
heavy 1: not shown
heavy 2: not shown
light: DIVMTQSPLSLPVTPGEPASISCQASESLVHSNRNTYLHWYLQKPGQSPQLLIYKVSNRFSGVPDRFSGSGSGTDFTLKISRVEAEDVGVYYCSQNTHVPPTFGQGTKVEIERTVAAPSVFIFPPSDEQLKSGTASVVCLLNNFYPREAKVQWKVDNALQSGNSQESVTEQDSKDSTYSLSSTLTLSKADYEKHKVYACEVTHQGLSSPVTKSFNRGEC
notes: copies: 1 + 1 + 2
B7: GpH7-A5/GpH7-B3 variant P271_06M/GpL16-k0 (antibody, human IgG1, kappa)
heavy 1: not shown
heavy 2: not shown
light: DIVMTQSPLSLPVTPGEPASISCQASESLVHSNRNTYLHWYLQKPGQSPQLLIYKVSNRFSGVPDRFSGSGSGTDFTLKISRVEAEDVGVYYCSQNTHVPPTFGQGTKVEIERTVAAPSVFIFPPSDEQLKSGTASVVCLLNNFYPREAKVQWKVDNALQSGNSQESVTEQDSKDSTYSLSSTLTLSKADYEKHKVYACEVTHQGLSSPVTKSFNRGEC
notes: copies: 1 + 1 + 2
B8: GpH7-A5/GpH7-B3 variant P271_07I/GpL16-k0 (antibody, human IgG1, kappa)
heavy 1: not shown
heavy 2: not shown
light: DIVMTQSPLSLPVTPGEPASISCQASESLVHSNRNTYLHWYLQKPGQSPQLLIYKVSNRFSGVPDRFSGSGSGTDFTLKISRVEAEDVGVYYCSQNTHVPPTFGQGTKVEIERTVAAPSVFIFPPSDEQLKSGTASVVCLLNNFYPREAKVQWKVDNALQSGNSQESVTEQDSKDSTYSLSSTLTLSKADYEKHKVYACEVTHQGLSSPVTKSFNRGEC
notes: copies: 1 + 1 + 2
B9: GpH7-A5/GpH7-B3 variant P271_08L/GpL16-k0 (antibody, human IgG1, kappa)
heavy 1: not shown
heavy 2: not shown
light: DIVMTQSPLSLPVTPGEPASISCQASESLVHSNRNTYLHWYLQKPGQSPQLLIYKVSNRFSGVPDRFSGSGSGTDFTLKISRVEAEDVGVYYCSQNTHVPPTFGQGTKVEIERTVAAPSVFIFPPSDEQLKSGTASVVCLLNNFYPREAKVQWKVDNALQSGNSQESVTEQDSKDSTYSLSSTLTLSKADYEKHKVYACEVTHQGLSSPVTKSFNRGEC
notes: copies: 1 + 1 + 2
B10: GpH7-A5/GpH7-B3 variant P271_09D/GpL16-k0 (antibody, human IgG1, kappa)
heavy 1: not shown
heavy 2: not shown
light: DIVMTQSPLSLPVTPGEPASISCQASESLVHSNRNTYLHWYLQKPGQSPQLLIYKVSNRFSGVPDRFSGSGSGTDFTLKISRVEAEDVGVYYCSQNTHVPPTFGQGTKVEIERTVAAPSVFIFPPSDEQLKSGTASVVCLLNNFYPREAKVQWKVDNALQSGNSQESVTEQDSKDSTYSLSSTLTLSKADYEKHKVYACEVTHQGLSSPVTKSFNRGEC
notes: copies: 1 + 1 + 2
B11: GpH7-A5/GpH7-B3 variant P271_10E/GpL16-k0 (antibody, human IgG1, kappa)
heavy 1: not shown
heavy 2: not shown
light: DIVMTQSPLSLPVTPGEPASISCQASESLVHSNRNTYLHWYLQKPGQSPQLLIYKVSNRFSGVPDRFSGSGSGTDFTLKISRVEAEDVGVYYCSQNTHVPPTFGQGTKVEIERTVAAPSVFIFPPSDEQLKSGTASVVCLLNNFYPREAKVQWKVDNALQSGNSQESVTEQDSKDSTYSLSSTLTLSKADYEKHKVYACEVTHQGLSSPVTKSFNRGEC
notes: copies: 1 + 1 + 2

Molecular target: T1, FcγRIIIa (human, UniProt P08637 17-208)
T1 construct: extracellular domain; also called 3a; FcγRIIIa extracellular domain
Test: SPR (Biacore);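 also: antibody variants captured on an SPR sensor chip, with FcγRIIIa passed over as analyte in HBS-EP+ buffer at 25 °C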
Protocol: The antibody of interest was analyzed for its interaction with FcγR using a BiaCore™ T100, BiaCore™ A100, or BiaCore™ 4000 surface plasmon resonance system (GE Healthcare Japan Corp.). The running buffer used was HBS-EP+ (GE Healthcare Japan Corp.). The assay temperature was set to 25° C. The sensor chips used were: a chip prepared by immobilizing antigenic peptides onto Series S Sensor Chip CM5 (GE Healthcare Japan Corp.) by the amine coupling method; a chip prepared by immobilizing antigenic peptides biotinylated in advance onto Series S Sensor Chip SA (certified) (GE Healthcare Japan Corp.) through their interaction; a chip prepared by immobilizing protein L (ACTIGEN, BioVision, Inc.) onto Series S Sensor Chip CM5 (GE Healthcare Japan Corp.); and a chip prepared by immobilizing protein A/G (Thermo Fisher Scientific K.K.) onto Series S Sensor Chip CM5 (GE Healthcare Japan Corp.). The antibody of interest was captured onto any of these chips and allowed to interact with FcγR diluted with a running buffer. The antibody captured on the chip was washed off through the reaction of 10 mM glycine-HCl (pH 1.5) to regenerate the chip, which was repetitively used.

T1 sequence (P08637 other isoform, or with tags, fused parts or gaps): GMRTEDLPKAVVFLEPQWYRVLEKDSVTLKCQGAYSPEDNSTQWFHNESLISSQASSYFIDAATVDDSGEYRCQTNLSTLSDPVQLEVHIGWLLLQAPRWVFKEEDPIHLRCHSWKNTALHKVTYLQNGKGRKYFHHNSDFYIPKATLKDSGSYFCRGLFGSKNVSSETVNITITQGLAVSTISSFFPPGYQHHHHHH

Going from B1 to B2, the “He/Con 3a” value falls from 61 % of GpH7-A5/GpH7-B3/GpL16-k0 to 52.7 % of GpH7-A5/GpH7-B3/GpL16-k0.

First: B3
Second: B4
The “He/Con 3a” value of the first is higher: 119 % of GpH7-A5/GpH7-B3/GpL16-k0 for the first, 83.7 % of GpH7-A5/GpH7-B3/GpL16-k0 for the second.

First: B5
Second: B6
The “He/Con 3a” value of the first is higher: 73.5 % of GpH7-A5/GpH7-B3/GpL16-k0 for the first, 65.6 % of GpH7-A5/GpH7-B3/GpL16-k0 for the second.

Compared with B7, B8 is higher in “He/Con 3a” value: 74 % of GpH7-A5/GpH7-B3/GpL16-k0 for the first, 80.2 % of GpH7-A5/GpH7-B3/GpL16-k0 for the second.

Going from B9 to B10, the “He/Con 3a” value rises from 74.5 % of GpH7-A5/GpH7-B3/GpL16-k0 to 97.7 % of GpH7-A5/GpH7-B3/GpL16-k0.

In the case of B11, the “He/Con 3a” value is reported as 98.2 % of GpH7-A5/GpH7-B3/GpL16-k0.
